The results in this text go back to patent US12091776B2, “Protease activity profiling via programmable phage display of comprehensive proteome-scale peptide libraries” (THE JOHNS HOPKINS UNIVERSITY, priority 2019, dated 2024).

To fix the notation:
T1: Caspase-1 (Homo sapiens, UniProt P29466)
T1 construct: purchased BioVision
T1 sequence (P29466 120-297 limits assumed): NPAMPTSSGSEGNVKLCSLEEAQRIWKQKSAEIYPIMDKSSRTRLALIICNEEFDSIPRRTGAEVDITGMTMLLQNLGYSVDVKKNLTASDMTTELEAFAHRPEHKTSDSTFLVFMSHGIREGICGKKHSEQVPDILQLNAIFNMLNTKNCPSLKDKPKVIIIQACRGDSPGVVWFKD
T1 sequence (P29466 317-404 limits assumed): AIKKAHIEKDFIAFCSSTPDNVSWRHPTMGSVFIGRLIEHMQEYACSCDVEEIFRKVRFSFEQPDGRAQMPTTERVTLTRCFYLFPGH

B1: AIRLANSTASVSRGSMQELDMLAGLRRSHAPQSRSSLNAKPHDSLDLNCDSRDFVAAIISIPTPPANTPDESQPSSPGGGGRAGSTLRNS (protein, listed as Homo sapiens)
chain: AIRLANSTASVSRGSMQELDMLAGLRRSHAPQSRSSLNAKPHDSLDLNCDSRDFVAAIISIPTPPANTPDESQPSSPGGGGRAGSTLRNS
B2: BSN 631-720: 90-aa human peptidome tile displayed on T7 phage (protein, UniProt Q9UPA5 631-720, looked up, fragment)
chain: ATPKVKSGVRRAEPATPVVKAVPEAPKGGEAEDLVGKPYSQDASRSPQSLSDTGYSSDGISSSQSEITGVVQQEVEQLDSAGVTGPHPPS
modifications: displayed on T7 phage
B3: HUWE1 2251-2340: 90-aa human peptidome tile of HUWE1 displayed on T7 phage (protein, UniProt Q7Z6Z7 2251-2340, looked up, fragment)
chain: ETLSRIVNQPSSLFGSKSASSKNKSEQDAQGASQDSSSNQQDPGEPGEAEVQEEDHDVTQTEVADGDIMDGEAETDSVVIAGQPEVLSSQ
modifications: displayed on T7 phage
B4: LYST 1171-1260: 90-aa human peptidome tile displayed on T7 phage (protein, UniProt Q99698 1171-1260, looked up, fragment)
chain: NYSADFEHNDAMTEKSHQSAEELSSQPGDFSEEAEDSQCCSFKLLVEEEGYEADSESNPEDGETQDDGVDLKSETEGFSASSSPNDLLEN
modifications: displayed on T7 phage
B5: TNS3 451-540: 90-aa human peptidome tile displayed on T7 phage (protein, UniProt Q68CZ2 451-540, looked up, fragment)
chain: YSGTRHVVPAQVHVNGDAALKDRETDILDDEMPHHDLHSVDSLGTLSSSEGPQSAHLGPFTCHKSSQNSLLSDGFGSNVGEDPQGTLVPD
modifications: displayed on T7 phage
B6: ANAPC1 1-90: 90-aa human peptidome tile displayed on T7 phage (protein, UniProt Q9H1A4 1-90, looked up, fragment)
chain: MSNFYEERTTMIAARDLQEFVPFGRDHCKHHPNALNLQLRQLQPASELWSSDGAAGLVGSLQEVTIHEKQKESWQLRKGVSEIGEDVDYD
modifications: displayed on T7 phage
B7: hoxa2 271-360: 90-aa human peptidome tile displayed on T7 phage (protein, UniProt O43364 271-360, looked up, fragment)
chain: SFPVSPLTSNEKNLKHFQHQSPTVPNCLSTMGQNCGAGLNNDSPEALEVPSLQDFSVFSTDSCLQLSDAVSPSLPGSLDSPVDISADSLD
modifications: displayed on T7 phage
B8: Hyls1 1-90: 90-aa human peptidome tile displayed on T7 phage (protein, UniProt Q96M11 1-90, looked up, fragment)
chain: MEELLPDGQIWANMDPEERMLAAATAFTHICAGQGEGDVRREAQSIQYDPYSKASVAPGKRPALPVQLQYPHVESNVPSETVSEASQRLR
modifications: displayed on T7 phage
B9: HUWE1 2341-2430: 90-aa human peptidome tile of HUWE1 displayed on T7 phage (protein, UniProt Q7Z6Z7 2341-2430, looked up, fragment)
chain: EMQVENELEDLIDELLERDGGSGNSTIIVSRSGEDESQEDVLMDEAPSNLSQASTLQANREDSMNILDPEDEEEHTQEEDSSGSNEDEDD
modifications: displayed on T7 phage
B10: HMGXB4 226-315: 90-aa human peptidome tile displayed on T7 phage (protein, UniProt Q9UGU5 226-315, looked up, fragment)
chain: KSARDEQGALLLGHELQSFLKTARKKHKSSSDAHSSPGPEGCGSDASQFAESHSANLDLSGLEPILVESDSSSGGELEAGELVIDDSYRE
modifications: displayed on T7 phage
B11: HUWE1 2296-2485: 90-aa human peptidome tile of HUWE1 displayed on T7 phage; position as printed (protein, UniProt Q7Z6Z7 2296-2485, looked up, fragment)
chain: PGEAEVQEEDHDVTQTEVADGDIMDGEAETDSVVIAGQPEVLSSQEMQVENELEDLIDELLERDGGSGNSTIIVSRSGEDESQEDVLMDEAPSNLSQASTLQANREDSMNILDPEDEEEHTQEEDSSGSNEDEDDSQDEEEEEEEDEEDDQEDDEGEEGDEDDDDDGSEMELDEDYPDMNASPLVRFERF
modifications: T7 phage display
notes: position as printed
B12: Znf462 1-90: 90-aa human peptidome tile displayed on T7 phage (protein, UniProt Q96JM2 1-90, looked up, fragment)
chain: MEVLQCDGCDFRAPSYEDLKAHIQDVHTAFLQPTDVAEDNVNELRCGSVNASNQTEVEFSSIKDEFAIAEDLSGQNATSLGTGGYYGHSP
modifications: displayed on T7 phage
B13: MAP3K14 496-585: 90-aa human peptidome tile displayed on T7 phage (protein, UniProt Q99558 496-585, looked up, fragment)
chain: LGQALEGLEYLHSRRILHGDVKADNVLLSSDGSHAALCDFGHAVCLQPDGLGKSLLTGDYIPGTETHMAPEVVLGRSCDAKVDVWSSCCM
modifications: displayed on T7 phage
B14: UHRF1BP1L 991-1080: 90-aa human peptidome tile displayed on T7 phage (protein, UniProt A0JNW5 991-1080, looked up, fragment)
chain: EIGSETSDKKDSFYTDSSSILNYREDSNILSFDSDGNQNILSSTLTSKGNETIESIFKAEDLLPEAASLSENLDISKEETPPVRTLKSQS
modifications: displayed on T7 phage
B15: Efs 181-270: 90-aa human peptidome tile displayed on T7 phage (protein, UniProt O43281 181-270, looked up, fragment)
chain: PGEDDAPYDVPLTPKPPAELEPDLEWEGGREPGPPIYAAPSNLKRASALLNLYEAPEELLADGEGGGTDEGIYDVPLLGPEAPPSPEPPG
modifications: displayed on T7 phage
B16: ZNF469 811-900: 90-aa human peptidome tile displayed on T7 phage (protein, UniProt Q96JG9 811-900, looked up, fragment)
chain: PLRTGFLPSLAATPFPLPASDLDMEDDAKLDSLITEALNGMEYQSDNPEIDSSFIDVFADEEPSGPRGPSSGHPLKSKAGVTPESKAPPP
modifications: displayed on T7 phage

The target of one assay is T2, ADAM17 (Homo sapiens, UniProt P78536).
T2 construct: purchased RnD Systems
T2 sequence (P78536 215-824): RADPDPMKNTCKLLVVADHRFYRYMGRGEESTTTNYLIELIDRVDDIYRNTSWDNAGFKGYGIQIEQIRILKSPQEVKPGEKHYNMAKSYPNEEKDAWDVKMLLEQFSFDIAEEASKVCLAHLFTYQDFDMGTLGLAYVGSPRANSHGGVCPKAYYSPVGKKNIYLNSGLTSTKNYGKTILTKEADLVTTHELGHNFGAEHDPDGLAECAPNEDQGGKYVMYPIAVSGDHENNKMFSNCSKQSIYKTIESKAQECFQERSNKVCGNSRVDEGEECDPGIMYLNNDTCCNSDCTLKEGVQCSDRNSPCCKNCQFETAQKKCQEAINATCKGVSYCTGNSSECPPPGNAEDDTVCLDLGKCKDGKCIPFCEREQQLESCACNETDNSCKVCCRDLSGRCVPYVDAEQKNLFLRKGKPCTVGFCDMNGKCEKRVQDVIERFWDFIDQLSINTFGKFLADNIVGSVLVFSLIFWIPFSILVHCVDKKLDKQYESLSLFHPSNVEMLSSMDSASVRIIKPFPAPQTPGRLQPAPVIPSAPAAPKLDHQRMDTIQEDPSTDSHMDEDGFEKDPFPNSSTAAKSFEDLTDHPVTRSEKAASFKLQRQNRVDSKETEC
As to the kind of experiment: SEPARATE assay: human peptidome library digest with ADAM17. As to conditions: top 20 enriched peptides, human library (90-aa tiles); digest vs mock digest. The assay is classed as biochemical. Here is the method: (§1) Streptavidin-coupled magnetic beads (Dynabeads M-280 Streptavidin, ThermoFisher Scientific) were washed (TBS, pH 7.4, 0.01% NP40) and resuspended in binding buffer (TBS, pH 7.4, 0.001% NP40) containing 2E9 plaque forming units per 10 μl of bead slurry. End-over-end mixing at room temperature was performed for one hour. Phage-coated beads were washed three times with wash buffer and transferred into two protein LoBind Eppendorf tubes blocked with TBS, pH 7.4 containing 1% BSA.
(§2) Digestion occurred overnight at room temperature with end-over-end rotation. […] To remove any residual biotinylated phage that may have been nonspecifically released, the 150 μl supernatant of the quenched digest reaction is then incubated with a fresh 10 μl of slurry volume M280 streptavidin beads (pre-washed three times with wash buffer) in a LoBind Eppendorf tube blocked with TBS, pH 7.4 containing 1% BSA at room temperature for one hour with end-over-end rotation.
(§3) 10 μl slurry volume of protein G magnetic dynabeads were washed in buffer (TBS, pH 7.4, 0.01% NP40) and then resuspended in 50 μl TBS, pH 7.4, 0.01% NP40 containing 4 μg of M2 FLAG antibody for thirty minutes at room temperature with end-over-end rotation. The 150 μl quenched digest reaction is added to the 10 μl FLAG-coated Protein G beads and incubated for 60 minutes at room temperature with end-over-end rotation to capture phage particles released at the protease digest step. Beads are rinsed once with 100 μl wash buffer and stored at −80° C. until PCR amplification.
(§4) Library PCR preparation, high-throughput DNA sequencing, and peptide read count data generation was performed as described previously.^44 Briefly, library peptide inserts are amplified by resuspending 10 μl of FLAG-coated Protein G beads in PCR1 master mix containing the T7-Pep2_PCR1_F forward primer ([…]) (SEQ ID NO:3) and a T7-SEPARATE vector specific reverse primer ([…]) (SEQ ID NO:4), which includes an adapter sequence for sample-specific barcoding and Illumina P7 adapter incorporation during a subsequent PCR2 reaction. The PCR2 amplicons are pooled and sequenced using an Illumina NextSeq instrument in standard output mode to obtain single-end 50 nucleotide reads. Dual indexed sample demultiplexing and clonal read count determination were performed using exact sequence matching. […] To calculate the normalization factor, 100 peptides were randomly selected from the mock digest conditions with a read count ranging between 10 and 40. The median read count value for these 100 peptides is calculated for each sample. The random peptide selection and median calculation is performed 20 times and the average of the 20 median values is calculated for each sample. Finally, the normalization factor is calculated by dividing the average median value for each sample by that for one of the mock digest conditions. Read counts are then converted to normalized read counts by dividing each sample's read count values by the normalization factor. Fold enrichments are calculated for each peptide by dividing their normalized read counts in the digest condition by the normalized read counts in the mock digest condition. The fold enrichments can be visualized in an MA plot by transforming the normalized read count data into a log ratio (M, on the y-axis) and a mean average (A, on the x-axis) between the digest and mock digest conditions.
For B1, the “Adam17 Fold Change” value came to 57.97 fold.

Another assay concerns the target T1, Caspase-1. Description: SEPARATE assay: human peptidome library digest with Caspase-1. It counts as biochemical. The following applies: top 20 enriched peptides, human library (90-aa tiles); normalized read counts digest vs mock digest. Here is the method:
as §1, §2, §3, §4
B2 displayed a Caspase1 fold change of 18.78 fold.

In the case of B3, the Caspase1 fold change was determined as 17.58 fold. Still for that read-out and setting: in the case of B4 it was 21.04 fold; in that of B5, 18.67 fold. For the molecule B6, the Caspase1 fold change amounted to 16.35 fold. In turn, B7 had a Caspase1 fold change of 17.06 fold. The same measure, in the same setting: in the case of B8 it was 19.74 fold; in that of B9, 16.55 fold; in that of B10, 16.49 fold. The same measure, in the same setting: in the case of B11 it was 22.71 fold; in that of B12, 19.1 fold. B13 displayed a Caspase1 fold change of 16.5 fold. In the case of B14, the Caspase1 fold change was 16.39 fold. Same read-out and setting: the same measure for B15: 21.06 fold; for B16: 16.76 fold.
